Experiments:
[1] = test system: G401 cell lines derived from Wilms tumor; test: Inhibitory effect on apoptosis induced by a carcinostatic (MTT method); assay type: cell-based; conditions: MK 1, 10 or 100 ng/mL + cisplatin 100 μM, 12 hour culture, compared with the cisplatin treated group
Experimental: Apoptosis was induced in G401 cell lines derived from Wilms tumor, infantile renal cancer, by a carcinostatic to examine the apoptosis-inhibitory effect of MK by the MTT method.
Five groups were prepared; the untreated group, the cisplatin (100 μM) treated group, and the MK (1, 10 or 100 ng/mL)+cisplatin treated groups.
G401 cells were suspended in the Dulbecco Modified Eagle Medium containing 10% fetal bovine serum (FBS) (10% FBS/DMEM) and seeded into a 96-well plate at 5000 cells/well. The plate was incubated in a CO2 incubator (37° C., 5% CO2; the same shall apply hereinbelow) so that the cells could attach to the plate.
The cells were washed with DMEM containing 0.1% FBS (0.1% FBS/DMEM) twice (hereafter, 0.1% FBS/DMEM was used for washing unless otherwise indicated), and cultured in 0.1% FBS/DMEM overnight. After culturing, MK was added to the MK treated groups at 1, 10 or 100 ng/ml. Each group was cultured for 6 hours. Six μl of 0.5 mg/ml cisplatin (100 μM) (Bristol-Myers Squib Company; Tokyo) was added to the cisplatin treated groups. Each group was cultured in 0.1% FBS/DMEM for 2 hours. […]
Fifteen μl of MTT reagent (5 mg/ml) (Wako Pure Chemical Laboratories; Osaka) were added to each well of the above-mentioned five groups and cultured for 4 hours. […] Absorbance (OD540-655) in each well was measured using a microplate reader.

G401 cells = test: Inhibitory effect on apoptosis induced by carcinostatic (Hoechst staining method); assay type: cell-based
Experimental: Five groups were prepared; the untreated group, the cisplatin (100 μM) treated group, the MK (1, 10, or 100 ng/mL)+cisplatin (100 μM) treated groups.
G401 cells (2×10^4) were seeded on a 3.5 cm-dish and cultured in 10% FBS/DMEM overnight. 10% FBS/DMEM was added to each dish and further cultured for 24 to 48 hours. The cells were washed twice and cultured in 0.1% FBS/DMEM overnight. MK was added to the MK treatment groups to 1, 10, or 100 ng/ml and cultured in 0.1% FBS/DMEM for 6 hours. Cisplatin was added to the cisplatin treatment groups to 100 μM and cultured in 0.1% FBS/DMEM for 2 hours. After culturing, the cells were washed three times. Then, human MK was added to the MK treatment groups to 1, 10, or 100 ng/ml and cultured in 0.1% FBS/DMEM for 12 or 24 hours.
The cells were fixed with a fixative (methanol:acetic acid=3:1) at room temperature for 10 min, and dried at room temperature for 30 min. Hoechst 33342 (ICN Biomedicals; Ohio, USA) was added thereto to stain the cells at room temperature for 10 to 30 min. The cells were washed with water three times, wind-dried, and mounted onto a fluorescent microscope (Olympus, BX60) and photographed. FIGS. 2A, 2B, and 2C show the untreated group, the cisplatin (100 μM) treated group, and the MK (100 ng/mL)+cisplatin (100 μM) treated group, which were all cultured for 12 hours. […]

NG 108 cell lines = test: Determination of DNA content in apoptosis-induced neurocytes (UV, PI staining, flow cytometry); assay type: cell-based, mouse; conditions: after UV exposure; for Ratio of cells at each cell cycle: G1: control group 7; for Ratio of cells at each cell cycle: G2/M: control group 9; for Ratio of cells at each cell cycle: S: control group 84
Experimental: The culture flasks were coated with MK 100 ng/ml or MK 10 μg/ml. The flasks without a MK-coating (control) were also prepared.
NG 108 cell lines, hybrid cells of mouse neuroblastoma C1300 and glioma (Nelson P. G. et al.: Brain Res., 147: 245, 1978), were cultured in a Falcon 3110 cell culture flask (75 cm^2, BECTON DICKINSON) containing 10% FBS/DMEM until the cells were almost confluent. After culturing, the cells were exposed to ultraviolet light for […] (UV radiation amount: 60-100 J/m^2) to induce apoptosis.
The cells were collected by centrifugation (4° C., 1000 rpm, 10 min), and washed with 10 to 12 ml of sample buffer [1 g glucose/1 L PBS (−); filtered through a 0.22 μm filter] twice. The cells were adjusted to 1×10^6 to 3×10^6 cells/ml with the sample buffer, and 1 ml of them was centrifuged (4° C., 1000 rpm, 10 min) in a centrifuge tube (FALCON; 15×75 mm). The supernatant was discarded and the pellet was vigorously vortexed for 10 sec. Ethanol (70%) cooled with ice (1 ml) was added dropwise thereto and fixed at 4° C. overnight.
The cells fixed overnight were briefly vortexed and centrifuged (3000 rpm, 5 min). 70% Ethanol in the supernatant was discarded to 0.2 ml or less. The centrifuge tubes containing the cells were slowly vortexed, and 1 ml of propidium iodide (PI) stain was added thereto. The PI stain contained 0.5 ml of 20×PI solution, 0.1 ml of 100×RNase A solution, and 10 ml of the sample buffer. Twenty-fold dilution of PI was obtained by preparing 1 mg/ml of PI solution (SIGMA), filtering it through a 0.22 μm filter, and storing it at 4° C. in the dark. RNase A solution (100×) was prepared by adjusting RIBONUCLEASE A (Type I-A) (SIGMA) (10000 U/ml) to 125 mg/ml (80 U/mg).
The cells were lightly shaken, incubated for 30 min or longer at room temperature, and measured by flow cytometry.

B1: MK: midkine, a heparin-binding growth and differentiation factor; human MK protein (SEQ ID NO: 3; or recombinant, secreted by yeast) (protein, UniProt P21741 21-143, looked up)
Midkine: VAKKKDKVKKGGPGSECAEWAWGPCTPSSKDCGVGFREGTCGAQTQRIRCRVPCNWKKEFGADCKYKFENWGACDGGTGTKVRQGTLKKARYNAQCQETIRVTKPCTPKTKAKAKAKKGKGKD
numbers of the surviving cells (MTT, absorbance OD540-655) [1]: increased numbers of the surviving cells in an MK concentration-dependent manner
numbers of cells containing Hoechst 33342-stained nuclei with condensed chromatin and fragmented nuclei (G401 cells; MK 100 ng/mL + cisplatin 100 μM, 12 and 24 hours, compared to cisplatin alone): remarkably decreased
Frequency of apoptotic cell death (Hoechst 33342) (G401 cells; MK 1, 10 or 100 ng/ml + cisplatin 100 μM, 12 and 24 hours culture, compared with the cisplatin treated group): decreased in a MK concentration-dependent fasion
Ratio of cells at each cell cycle: G1 (NG 108 cell lines; flask coated with MK 100 ng/ml): 75%
Ratio of cells at each cell cycle: G2/M (NG 108 cell lines; flask coated with MK 100 ng/ml): 5%
Ratio of cells at each cell cycle: S (NG 108 cell lines; flask coated with MK 100 ng/ml): 19%
Ratio of cells at each cell cycle: G1 (NG 108 cell lines; flask coated with MK 10 μg/ml): 67%
Ratio of cells at each cell cycle: G2/M (NG 108 cell lines; flask coated with MK 10 μg/ml): 24%
Ratio of cells at each cell cycle: S (NG 108 cell lines; flask coated with MK 10 μg/ml): 9%
change of the ratio of the cells at G1 phase compared with the control group (NG 108 cell lines; in the presence of MK): increased by about tenfold
change of the ratio of the cells at S phase compared with the control group (NG 108 cell lines; in the presence of MK): decreased one eighth to one forth
